The nature of the series: protein stability index of a GFP-peptide fusion (GPS, HEK-293T) (PSI 1-6); higher = more stable. The settings on record: c terminus: a fixed tail appended.

± gives the standard deviation.
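Note: 24-mer peptide tiles fused after GFP, lentivirally expressed, FACS-sorted into six equal bins by GFP/DsRed ratio, decoded by Illumina sequencing, PSI is the read-weighted mean bin number.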

As for IQDRLSNTLQTYIRCRHPPPGSHL [VDR], the protein stability index turned out to be 2.73 ± 0.17 (treatment: DMSO) and 2.74 ± 0.22 (treatment: MLN4924 1 uM, 8 h).
With IQKLTQIETGENVTGMELEFKRLA [PTPRD], the protein stability index was 3.51 ± 0.08 (treatment: DMSO) and 3.55 ± 0.43 (treatment: MLN4924 1 uM, 8 h).
On to IQLKSVADGQESTPPTPAPTSGIV [WASL], for which the protein stability index turned out to be 4.68 ± 0.21 (treatment: DMSO) and 4.84 ± 0.16 (treatment: MLN4924 1 uM, 8 h).
Take IQRPANAIKEMIENCLDAKSTSIQ [MLH1]: the protein stability index (treatment: DMSO) came to 4.16 ± 0.16.
Regarding IRDIRRRGKNKMAAQNCRKRKLDT [NFE2L1], the protein stability index (treatment: DMSO) was determined as 3.84 ± 0.29 and the protein stability index (treatment: MLN4924 1 uM, 8 h) was 3.94 ± 0.32.
Regarding IRPVAGYLSPRDFLSGLAFRVFHC [TPH1], the protein stability index by setting is: (treatment: DMSO) 2.1 ± 0.13; (treatment: MLN4924 1 uM, 8 h) 2.12 ± 0.1.
ISKNKKKASNSIISCFNNAPPAKL [FAN1]: the protein stability index is, setting by setting: (treatment: DMSO) 3.36 ± 0.21; (treatment: MLN4924 1 uM, 8 h) 2.79 ± 0.31.
For ISLALFVLPKPKVISCLEQGEEPW [ZNF75A], in that order: 3.21 ± 0.49 and 2.9 ± 0.56.
ISLTCVSVAFAVAWFLPMPQKSLF [SLC19A2] had a protein stability index (treatment: DMSO) of 3.15 ± 0.18 and a protein stability index (treatment: MLN4924 1 uM, 8 h) of 3.19 ± 0.17.
ISPRGAGYTFGQDISETFNHANGL [PPP2CA]: the protein stability index is, setting by setting: (treatment: DMSO) 3.17 ± 0.26; (treatment: MLN4924 1 uM, 8 h) 3.23 ± 0.41.
For ISRALLSDVVPEKERPLVIGHFNT [MFSD9], in that order: 3.04 ± 0.45 and 2.99 ± 0.31.
Consider ITATSLLGTRESDTEVITVEKSSP [BCL2L13], for which the protein stability index runs as follows: (treatment: DMSO) 4.91 ± 0.19; (treatment: MLN4924 1 uM, 8 h) 5.01 ± 0.16.
ITSSIPDTERLDDFHLSIHSDMAA [DVL3]: the protein stability index (treatment: DMSO) was determined as 4.08 ± 0.22 and the protein stability index (treatment: MLN4924 1 uM, 8 h) stood at 4.3 ± 0.17.
Turning to ITTVSKAKGASLFTCDLQHTETGE [VPS39], the protein stability index runs as follows: (treatment: DMSO) 4.06 ± 0.25; (treatment: MLN4924 1 uM, 8 h) 3.99 ± 0.21.
Consider IVITGDADIDHDQALAQAIKEAKE [EPB41L3], for which the protein stability index runs as follows: (treatment: DMSO) 2.85 ± 0.58; (treatment: MLN4924 1 uM, 8 h) 3.45 ± 0.48.
For IVKQMKIIHEAGYSEEECKQYKAV [GNAI1], in that order: 3.13 ± 0.22 and 3.77 ± 0.23.
With IVKQQDPLVYKAIQQGINAVNQEA [ACSBG2], the protein stability index runs as follows: (treatment: DMSO) 3.75 ± 0.11; (treatment: MLN4924 1 uM, 8 h) 3.82 ± 0.12.
As to IYAMKILRKSDMLEKEQVAHIRAE [STK38L], the protein stability index (treatment: DMSO) is 2.33 ± 0.26 and the protein stability index (treatment: MLN4924 1 uM, 8 h) is 2.48 ± 0.22.
In the case of IYTEFPDETLRSGELLNMIVAVID [INTS3], the protein stability index came to 2.14 ± 0.29 (treatment: DMSO) and 2.47 ± 0.099 (treatment: MLN4924 1 uM, 8 h).
With KAEGGEEDSLGCLTADTKEVTASQ [IRX6], the protein stability index is 5.49 ± 0.22 (treatment: DMSO) and 5.48 ± 0.24 (treatment: MLN4924 1 uM, 8 h).
The sequence KAGQPESRALALFDIQKIMQEKNP [ZNF8] displayed a protein stability index (treatment: DMSO) of 4.06 ± 0.36 and a protein stability index (treatment: MLN4924 1 uM, 8 h) of 4.26 ± 0.12.
KALTTLCDLADRELVVIIGWAKHI [ESRRG]: the protein stability index worked out at 2.83 ± 0.38 (treatment: DMSO) and 2.79 ± 0.62 (treatment: MLN4924 1 uM, 8 h).
In the case of KAQAKVGSLDNAHHVPGGGNVKID [MAP2], the protein stability index was 4.85 ± 0.12 (treatment: DMSO) and 4.87 ± 0.34 (treatment: MLN4924 1 uM, 8 h).
As to KCAEVIIPLLSSVNVSDRGGRTAL [ANKRD44], the protein stability index (treatment: DMSO) is 2.38 ± 0.37 and the protein stability index (treatment: MLN4924 1 uM, 8 h) worked out at 2.37 ± 0.16.
With KDGKLLAATLLLALLSCCLTVVSF [TNFSF13B], the protein stability index runs as follows: (treatment: DMSO) 3.26 ± 0.39; (treatment: MLN4924 1 uM, 8 h) 3.35 ± 0.32.
As for KDIAGEFKEQLQALIPYVLNPSKL [ATL3], the protein stability index stood at 2.19 ± 0.11 (treatment: DMSO) and 2.32 ± 0.18 (treatment: MLN4924 1 uM, 8 h).
As to KDPRQWTETHVRDWVMWAVNEFSL [ETS1], the protein stability index runs as follows: (treatment: DMSO) 2.67 ± 1.1; (treatment: MLN4924 1 uM, 8 h) 2.23 ± 0.34.
With KDQQTFARSVGLKWRKVGRSLQRG [TRADD], the protein stability index was found to be 3.27 ± 0.34 (treatment: DMSO) and 3.49 ± 0.3 (treatment: MLN4924 1 uM, 8 h).
In the case of KEAGLSQSHDDLSNATATPSVRKK [C2CD2L], the protein stability index by setting is: (treatment: DMSO) 5.44 ± 0.19; (treatment: MLN4924 1 uM, 8 h) 5.53 ± 0.28.
